Data on one substance can be found in paper PMC11672753.

Chain of S15-FX (human) (heavy, as listed by the source, chain 1 of 2): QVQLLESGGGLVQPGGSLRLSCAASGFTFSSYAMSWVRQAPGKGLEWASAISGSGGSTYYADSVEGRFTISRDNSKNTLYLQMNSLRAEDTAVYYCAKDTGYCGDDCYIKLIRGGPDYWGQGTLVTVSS
Chain of S15-FX (human) (light, as listed by the source, chain 2 of 2): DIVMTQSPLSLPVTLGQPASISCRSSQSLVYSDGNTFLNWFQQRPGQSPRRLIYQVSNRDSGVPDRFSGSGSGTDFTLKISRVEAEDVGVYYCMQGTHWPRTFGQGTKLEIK
Chain of S15-HDEL (human) (heavy, as listed by the source, chain 1 of 2): as the sequence (heavy, as listed by the source, chain 1 of 2) above
Chain of S15-HDEL (human) (light, as listed by the source, chain 2 of 2): as the sequence (light, as listed by the source, chain 2 of 2) above

With “FcγRIIIa-dimer, biotinylated (from UniProt P08637 17-254) (receptor)”, the NK cell activation (CD107 and IFNγ expression) by antigen-bound antibody, against the WT plant antibody in the test with S15-FX (human) and with S15-HDEL (human) was 3 fold each time.
